In test [1] the target is T1, human amylin receptor (amylin 3(a) receptor: human calcitonin receptor with RAMP-3) (human, UniProt P30988 25-474; O60896 24-148).
T1 sequence (looked up) 1: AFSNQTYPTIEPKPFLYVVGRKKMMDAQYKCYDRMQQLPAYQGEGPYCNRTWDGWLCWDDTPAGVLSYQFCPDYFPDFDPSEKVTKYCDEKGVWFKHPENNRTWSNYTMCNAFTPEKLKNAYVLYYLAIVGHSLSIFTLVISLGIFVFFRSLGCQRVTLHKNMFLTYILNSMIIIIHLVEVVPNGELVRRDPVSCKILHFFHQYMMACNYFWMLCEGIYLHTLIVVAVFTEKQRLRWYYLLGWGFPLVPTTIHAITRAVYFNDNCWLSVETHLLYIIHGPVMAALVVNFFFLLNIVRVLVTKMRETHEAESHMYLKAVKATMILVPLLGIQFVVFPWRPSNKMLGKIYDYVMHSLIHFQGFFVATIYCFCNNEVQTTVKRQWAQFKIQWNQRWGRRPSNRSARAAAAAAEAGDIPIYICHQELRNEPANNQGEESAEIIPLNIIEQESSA
T1 sequence (looked up) 2: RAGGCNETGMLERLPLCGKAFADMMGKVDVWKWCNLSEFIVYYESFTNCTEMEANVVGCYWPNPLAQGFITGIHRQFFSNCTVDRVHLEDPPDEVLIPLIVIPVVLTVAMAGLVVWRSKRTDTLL
The test can be described thus: cell-based or functional assay.

The target of test [2] is T2, human calcitonin receptor (human, UniProt P30988 25-474).
T2 sequence (looked up): T1 sequence (looked up) 1
Nature of the test: cell-based or functional assay.

Numbered stars: 1 amine (or outer) side, 2 acyl side, 3 side chain; on linkers, the order of the positions; unused ones are H or OH. Bridge positions count the residues as written; N and C are the ends. * marks the point of attachment. C20 diacid = O=C(O)CCCCCCCCCCCCCCCCCCC(=O)*; γGlu = O=C(O)[C@H](CCC(=O)[*:2])N[*:1]

B1: N^α1-[(4S)-4-carboxy-4-(19-carboxynonadecanoylamino)butanoyl]-[Glu14,Arg17,Pro21,Pro27,Asp35,Pro37]-h-amylin (peptide)
peptide: {C20 diacid-γGlu}-KCNTATCATQRLAEFLRHSSPNFGAIPSSTNVGSDTP-NH2
modifications: disulfide 2-7
SMILES: CC[C@H](C)[C@H](NC(=O)[C@H](C)NC(=O)CNC(=O)[C@H](Cc1ccccc1)NC(=O)[C@H](CC(N)=O)NC(=O)[C@@H]1CCCN1C(=O)[C@H](CO)NC(=O)[C@H](CO)NC(=O)[C@H](Cc1c[nH]cn1)NC(=O)[C@H](CCCNC(=N)N)NC(=O)[C@H](CC(C)C)NC(=O)[C@H](Cc1ccccc1)NC(=O)[C@H](CCC(=O)O)NC(=O)[C@H](C)NC(=O)[C@H](CC(C)C)NC(=O)[C@H](CCCNC(=N)N)NC(=O)[C@H](CCC(N)=O)NC(=O)[C@@H](NC(=O)[C@H](C)NC(=O)[C@@H]1CSSC[C@H](NC(=O)[C@H](CCCCN)NC(=O)CC[C@H](NC(=O)CCCCCCCCCCCCCCCCCCC(=O)O)C(=O)O)C(=O)N[C@@H](CC(N)=O)C(=O)N[C@@H]([C@@H](C)O)C(=O)N[C@@H](C)C(=O)N[C@@H]([C@@H](C)O)C(=O)N1)[C@@H](C)O)C(=O)N1CCC[C@H]1C(=O)N[C@@H](CO)C(=O)N[C@@H](CO)C(=O)N[C@H](C(=O)N[C@@H](CC(N)=O)C(=O)N[C@H](C(=O)NCC(=O)N[C@@H](CO)C(=O)N[C@@H](CC(=O)O)C(=O)N[C@H](C(=O)N1CCC[C@H]1C(N)=O)[C@@H](C)O)C(C)C)[C@@H](C)O
notes: also called compound 11
Consider B1, for which the “hAmylin-R funct. EC50” value in test [1] was 120 pM. Further, in test [2], the “Ratio hCT/hAmylin funct.” value came to 0.9 and the “hCTR funct. EC50” value stood at 112 pM.

B2: N^α1-[(4S)-4-carboxy-4-(19-carboxynonadecanoylamino)butanoyl]-[Glu14,Arg17,Pro21,Pro27,His35]-h-amylin (peptide)
peptide: {C20 diacid-γGlu}-KCNTATCATQRLAEFLRHSSPNFGAIPSSTNVGSHTY-NH2
modifications: disulfide 2-7
SMILES: CC[C@H](C)[C@H](NC(=O)[C@H](C)NC(=O)CNC(=O)[C@H](Cc1ccccc1)NC(=O)[C@H](CC(N)=O)NC(=O)[C@@H]1CCCN1C(=O)[C@H](CO)NC(=O)[C@H](CO)NC(=O)[C@H](Cc1c[nH]cn1)NC(=O)[C@H](CCCNC(=N)N)NC(=O)[C@H](CC(C)C)NC(=O)[C@H](Cc1ccccc1)NC(=O)[C@H](CCC(=O)O)NC(=O)[C@H](C)NC(=O)[C@H](CC(C)C)NC(=O)[C@H](CCCNC(=N)N)NC(=O)[C@H](CCC(N)=O)NC(=O)[C@@H](NC(=O)[C@H](C)NC(=O)[C@@H]1CSSC[C@H](NC(=O)[C@H](CCCCN)NC(=O)CC[C@H](NC(=O)CCCCCCCCCCCCCCCCCCC(=O)O)C(=O)O)C(=O)N[C@@H](CC(N)=O)C(=O)N[C@@H]([C@@H](C)O)C(=O)N[C@@H](C)C(=O)N[C@@H]([C@@H](C)O)C(=O)N1)[C@@H](C)O)C(=O)N1CCC[C@H]1C(=O)N[C@@H](CO)C(=O)N[C@@H](CO)C(=O)N[C@H](C(=O)N[C@@H](CC(N)=O)C(=O)N[C@H](C(=O)NCC(=O)N[C@@H](CO)C(=O)N[C@@H](Cc1c[nH]cn1)C(=O)N[C@H](C(=O)N[C@@H](Cc1ccc(O)cc1)C(N)=O)[C@@H](C)O)C(C)C)[C@@H](C)O
notes: also called compound 18
Consider B2, for which, in test [1], the “hAmylin-R funct. EC50” value was 154 pM. In test [2], the “Ratio hCT/hAmylin funct.” value was 4.8 and the “hCTR funct. EC50” value came out at 742 pM.

B3: N^α1-[(4S)-4-carboxy-4-(19-carboxynonadecanoylamino)butanoyl]-[Glu14,Arg17,Pro21,Pro27,Pro34]-h-amylin (peptide)
peptide: {C20 diacid-γGlu}-KCNTATCATQRLAEFLRHSSPNFGAIPSSTNVGPNTY-NH2
modifications: disulfide 2-7
SMILES: CC[C@H](C)[C@H](NC(=O)[C@H](C)NC(=O)CNC(=O)[C@H](Cc1ccccc1)NC(=O)[C@H](CC(N)=O)NC(=O)[C@@H]1CCCN1C(=O)[C@H](CO)NC(=O)[C@H](CO)NC(=O)[C@H](Cc1c[nH]cn1)NC(=O)[C@H](CCCNC(=N)N)NC(=O)[C@H](CC(C)C)NC(=O)[C@H](Cc1ccccc1)NC(=O)[C@H](CCC(=O)O)NC(=O)[C@H](C)NC(=O)[C@H](CC(C)C)NC(=O)[C@H](CCCNC(=N)N)NC(=O)[C@H](CCC(N)=O)NC(=O)[C@@H](NC(=O)[C@H](C)NC(=O)[C@@H]1CSSC[C@H](NC(=O)[C@H](CCCCN)NC(=O)CC[C@H](NC(=O)CCCCCCCCCCCCCCCCCCC(=O)O)C(=O)O)C(=O)N[C@@H](CC(N)=O)C(=O)N[C@@H]([C@@H](C)O)C(=O)N[C@@H](C)C(=O)N[C@@H]([C@@H](C)O)C(=O)N1)[C@@H](C)O)C(=O)N1CCC[C@H]1C(=O)N[C@@H](CO)C(=O)N[C@@H](CO)C(=O)N[C@H](C(=O)N[C@@H](CC(N)=O)C(=O)N[C@H](C(=O)NCC(=O)N1CCC[C@H]1C(=O)N[C@@H](CC(N)=O)C(=O)N[C@H](C(=O)N[C@@H](Cc1ccc(O)cc1)C(N)=O)[C@@H](C)O)C(C)C)[C@@H](C)O
notes: also called compound 32
For the molecule B3, in test [1], the “hAmylin-R funct. EC50” value is 50 pM. In test [2], the “Ratio hCT/hAmylin funct.” value was determined as 6.6 and the “hCTR funct. EC50” value was 327 pM.

B4: N^α1-[(4S)-4-carboxy-4-(19-carboxynonadecanoylamino)butanoyl]-[Glu14,Arg17,Pro21,Pro27,Pro31]-h-amylin (peptide)
peptide: {C20 diacid-γGlu}-KCNTATCATQRLAEFLRHSSPNFGAIPSSTPVGSNTY-NH2
modifications: disulfide 2-7
SMILES: CC[C@H](C)[C@H](NC(=O)[C@H](C)NC(=O)CNC(=O)[C@H](Cc1ccccc1)NC(=O)[C@H](CC(N)=O)NC(=O)[C@@H]1CCCN1C(=O)[C@H](CO)NC(=O)[C@H](CO)NC(=O)[C@H](Cc1c[nH]cn1)NC(=O)[C@H](CCCNC(=N)N)NC(=O)[C@H](CC(C)C)NC(=O)[C@H](Cc1ccccc1)NC(=O)[C@H](CCC(=O)O)NC(=O)[C@H](C)NC(=O)[C@H](CC(C)C)NC(=O)[C@H](CCCNC(=N)N)NC(=O)[C@H](CCC(N)=O)NC(=O)[C@@H](NC(=O)[C@H](C)NC(=O)[C@@H]1CSSC[C@H](NC(=O)[C@H](CCCCN)NC(=O)CC[C@H](NC(=O)CCCCCCCCCCCCCCCCCCC(=O)O)C(=O)O)C(=O)N[C@@H](CC(N)=O)C(=O)N[C@@H]([C@@H](C)O)C(=O)N[C@@H](C)C(=O)N[C@@H]([C@@H](C)O)C(=O)N1)[C@@H](C)O)C(=O)N1CCC[C@H]1C(=O)N[C@@H](CO)C(=O)N[C@@H](CO)C(=O)N[C@H](C(=O)N1CCC[C@H]1C(=O)N[C@H](C(=O)NCC(=O)N[C@@H](CO)C(=O)N[C@@H](CC(N)=O)C(=O)N[C@H](C(=O)N[C@@H](Cc1ccc(O)cc1)C(N)=O)[C@@H](C)O)C(C)C)[C@@H](C)O
notes: also called compound 31
Turning to B4, in test [1], the “hAmylin-R funct. EC50” value was found to be 112 pM. In addition, in test [2], the “Ratio hCT/hAmylin funct.” value amounted to 6.4 and the “hCTR funct. EC50” value worked out at 717 pM.

B5: N^α1-[(4S)-4-carboxy-4-(19-carboxynonadecanoylamino)butanoyl]-[Glu14,Arg17,Pro21,Pro27,His34]-h-amylin (peptide)
peptide: {C20 diacid-γGlu}-KCNTATCATQRLAEFLRHSSPNFGAIPSSTNVGHNTY-NH2
modifications: disulfide 2-7
SMILES: CC[C@H](C)[C@H](NC(=O)[C@H](C)NC(=O)CNC(=O)[C@H](Cc1ccccc1)NC(=O)[C@H](CC(N)=O)NC(=O)[C@@H]1CCCN1C(=O)[C@H](CO)NC(=O)[C@H](CO)NC(=O)[C@H](Cc1c[nH]cn1)NC(=O)[C@H](CCCNC(=N)N)NC(=O)[C@H](CC(C)C)NC(=O)[C@H](Cc1ccccc1)NC(=O)[C@H](CCC(=O)O)NC(=O)[C@H](C)NC(=O)[C@H](CC(C)C)NC(=O)[C@H](CCCNC(=N)N)NC(=O)[C@H](CCC(N)=O)NC(=O)[C@@H](NC(=O)[C@H](C)NC(=O)[C@@H]1CSSC[C@H](NC(=O)[C@H](CCCCN)NC(=O)CC[C@H](NC(=O)CCCCCCCCCCCCCCCCCCC(=O)O)C(=O)O)C(=O)N[C@@H](CC(N)=O)C(=O)N[C@@H]([C@@H](C)O)C(=O)N[C@@H](C)C(=O)N[C@@H]([C@@H](C)O)C(=O)N1)[C@@H](C)O)C(=O)N1CCC[C@H]1C(=O)N[C@@H](CO)C(=O)N[C@@H](CO)C(=O)N[C@H](C(=O)N[C@@H](CC(N)=O)C(=O)N[C@H](C(=O)NCC(=O)N[C@@H](Cc1c[nH]cn1)C(=O)N[C@@H](CC(N)=O)C(=O)N[C@H](C(=O)N[C@@H](Cc1ccc(O)cc1)C(N)=O)[C@@H](C)O)C(C)C)[C@@H](C)O
notes: also called compound 17
For B5, in test [1], the “hAmylin-R funct. EC50” value was 268 pM. The “Ratio hCT/hAmylin funct.” value in test [2] was found to be 8.8.

B6: N^α1-[(4S)-4-carboxy-4-(19-carboxynonadecanoylamino)butanoyl]-[Glu14,Arg17,Pro21,Pro27,Pro29]-h-amylin (peptide)
peptide: {C20 diacid-γGlu}-KCNTATCATQRLAEFLRHSSPNFGAIPSPTNVGSNTY-NH2
modifications: disulfide 2-7
SMILES: CC[C@H](C)[C@H](NC(=O)[C@H](C)NC(=O)CNC(=O)[C@H](Cc1ccccc1)NC(=O)[C@H](CC(N)=O)NC(=O)[C@@H]1CCCN1C(=O)[C@H](CO)NC(=O)[C@H](CO)NC(=O)[C@H](Cc1c[nH]cn1)NC(=O)[C@H](CCCNC(=N)N)NC(=O)[C@H](CC(C)C)NC(=O)[C@H](Cc1ccccc1)NC(=O)[C@H](CCC(=O)O)NC(=O)[C@H](C)NC(=O)[C@H](CC(C)C)NC(=O)[C@H](CCCNC(=N)N)NC(=O)[C@H](CCC(N)=O)NC(=O)[C@@H](NC(=O)[C@H](C)NC(=O)[C@@H]1CSSC[C@H](NC(=O)[C@H](CCCCN)NC(=O)CC[C@H](NC(=O)CCCCCCCCCCCCCCCCCCC(=O)O)C(=O)O)C(=O)N[C@@H](CC(N)=O)C(=O)N[C@@H]([C@@H](C)O)C(=O)N[C@@H](C)C(=O)N[C@@H]([C@@H](C)O)C(=O)N1)[C@@H](C)O)C(=O)N1CCC[C@H]1C(=O)N[C@@H](CO)C(=O)N1CCC[C@H]1C(=O)N[C@H](C(=O)N[C@@H](CC(N)=O)C(=O)N[C@H](C(=O)NCC(=O)N[C@@H](CO)C(=O)N[C@@H](CC(N)=O)C(=O)N[C@H](C(=O)N[C@@H](Cc1ccc(O)cc1)C(N)=O)[C@@H](C)O)C(C)C)[C@@H](C)O
notes: also called compound 37
Regarding B6, in test [1], the “hAmylin-R funct. EC50” value amounted to 92 pM. In test [2], the “Ratio hCT/hAmylin funct.” value was determined as 4 and the “hCTR funct. EC50” value was 372 pM.

For the origin of these results see patent US20140087995A1 (published 2014).
